Measurements taken from patent publication US11111484B2, “Streptococcus bacteriophage lysins for detection and treatment of gram positive bacteria” (priority 2011, dated 2021).
“Also recorded” adds a separate entry of the source.

Experiments:
S. sanguinis 10556 = experiment: ΔPlySs1 OD600 lysis, 1 hr, optimal buffering conditions; assay type: cell-based, Streptococcus sanguinis
S. epidermidis HN1292 = experiment: as above; assay type: cell-based, Staphylococcus epidermidis
S. oralis 35037 = experiment: as above; assay type: cell-based, Streptococcus oralis
S. rattus BHT = experiment: as above; assay type: cell-based, Streptococcus rattus
S. dysgalactiae GGS = experiment: as above; assay type: cell-based, Streptococcus dysgalactiae
E. faecium EFSK2 = experiment: as above; assay type: cell-based, Enterococcus faecium
B. thuringiensis HD73 = experiment: as above; assay type: cell-based, Bacillus thuringiensis
S. suis 7197 (ST7) = experiment: as above; assay type: cell-based, Streptococcus suis
Experimental: (§1) Truncated PlySs1(ΔPlySs1) lysin activity was determined against different cell types. Given the above experiments, the following optimal buffering conditions were employed for all further in vitro experiments with ΔPlySs1: 20 mM phosphate buffer, pH=7.8, 2 mM EDTA. A range of lysin concentrations, from 6.5-130 μg/ml, were introduced to live S. suis cells in this buffer. Three strains were considered particularly relevant: 7711, the serotype 7 strain that encodes PlySs1; S735, the serotype 2 reference strain; and 7997, a highly virulent serotype 9 strain. In terms of bacterial viability, only the highest PlySs1-concentration (130 μg/ml) led to a >90% decrease in CFUs for 7711, S735, and 7997 after 1 hr treatment (TABLE 2). The lysin was also tested against actively-dividing cells in broth culture (strain 7711) (FIG. 20).
(§2) ΔPlySs1 was further tested against a panel of 19 other S. suis strains of diverse serotypes, as well as other species of Gram-positive bacteria. The same lysin concentrations were used as above. For each dosage, the observed lysis values after 1 hr are listed in TABLE 3 and TABLE 4, and the information is summarized graphically in FIG. 21.

S. suis ST8 = experiment: as above; assay type: cell-based, Streptococcus suis
Experimental: as §1, §2

S. uberis 27598 = experiment: as above; assay type: cell-based
S. pyogenes D471 = experiment: as above; assay type: cell-based, Streptococcus pyogenes
S. dysgalactiae 21597 = experiment: as above; assay type: cell-based, Streptococcus dysgalactiae
S. suis 7997 = experiment: PlySs2 biochemical characterization, turbidity reduction (OD600)
MRSA = MRSA mouse sepsis model; assay type: in vivo, FVB/NJ mice
Experimental: PlySs2 lysin activity against S. aureus has been further evaluated in an MRSA mouse sepsis model. In the MRSA mouse sepsis model, susceptible mice (FVB/NJ mice, weight range 15-20 g) were injected with 500 μL of 5×10^5 (approx LD100) MRSA cells/mL in 5% hog gastric mucin in PBS intraperitoneally (IP). After 3 hours, all of the mice are bacteremic with MRSA in their organs (including spleen, liver, kidney, and heart/blood). To determine PlySs2 activity in this model, 500 μL PlySs2 at 2 mg/mL was injected IP 3 hours after injecting MRSA. […] Control mice were injected with 500 μL PBS. Survival was evaluated over ten days. The control mice die within 18-20 hours.

MRSA MW2 = experiment: CFU studies, bactericidal effect; assay type: cell-based, Staphylococcus aureus; conditions: 128 μg/ml PlySs2, 1 hour
Experimental: Log-phase bacteria were resuspended in buffer A to an OD600 of 0.1 (=0.5 McFarland≈10^8 CFU/ml). PlySs2 was added at 128 μg/ml to polypropylene microtiter plates (Costar) in triplicate for each test organism. Plates were sealed and incubated at 37° C. with shaking every 5 minutes for 1 hour. After 1 hour of incubation, cells were serially diluted in 10-fold increments and plated on BHI. Triplicate controls for each strain were performed with buffer B replacing PlySs2.

B1: ΔPlySs1: truncated PlySs1 lysin, SEQ ID NO:2, N-terminal 254 amino acids: only N-terminal enzymatic and central binding domains (protein, listed as Streptococcus suis)
chain: MTINLETSIRWMSDRVGKVSYSMDYRNGPNSYDCSSAVYYALMAGGAISAGWAVNTEYMHDWLIRNGYVLVAENKPFNAQRHDVCILGKRGYSSGAGGHVVIFVDNVNVIHCNYARNGISIDNYNQVHRGMYYYLYRPANQPSISNKSLDQLVKETLAGVHGNGDTRKASLGSQYEAVMAVINGKASASEKSDEELAREVLAGKHGAGEDRKRSLGPRYEPVQAKVNELLKAKEKPSETAKNEPQTVQFKEDGDL
For B1, the “lysis value after 1 hr (treated/untreated OD600 ratio)” value (S. sanguinis 10556; 6.5 μg/ml) was 0.48, the “lysis value after 1 hr (treated/untreated OD600 ratio)” value (S. sanguinis 10556; 13 μg/ml) was 0.44 and the “lysis value after 1 hr (treated/untreated OD600 ratio)” value (S. sanguinis 10556; 30 μg/ml) was 0.28. The “lysis value after 1 hr (treated/untreated OD600 ratio)” value (S. sanguinis 10556; 65 μg/ml) was 0.21, the “lysis value after 1 hr (treated/untreated OD600 ratio)” value (S. sanguinis 10556; 130 μg/ml) was 0.11 and the “lysis value after 1 hr (treated/untreated OD600 ratio)” value (S. epidermidis HN1292; 6.5 μg/ml) was 1.04. The “lysis value after 1 hr (treated/untreated OD600 ratio)” value (S. epidermidis HN1292; 13 μg/ml) was 1.00, the “lysis value after 1 hr (treated/untreated OD600 ratio)” value (S. epidermidis HN1292; 30 μg/ml) was 0.96 and the “lysis value after 1 hr (treated/untreated OD600 ratio)” value (S. epidermidis HN1292; 65 μg/ml) was 0.94. For the same molecule, the “lysis value after 1 hr (treated/untreated OD600 ratio)” value (S. epidermidis HN1292; 130 μg/ml) was 0.87, the “lysis value after 1 hr (treated/untreated OD600 ratio)” value (S. oralis 35037; 6.5 μg/ml) was 0.30 and the “lysis value after 1 hr (treated/untreated OD600 ratio)” value (S. oralis 35037; 13 μg/ml) was 0.13. The “lysis value after 1 hr (treated/untreated OD600 ratio)” value (S. oralis 35037; 30 μg/ml) was 0.08, the “lysis value after 1 hr (treated/untreated OD600 ratio)” value (S. oralis 35037; 65 μg/ml) was 0.07 and the “lysis value after 1 hr (treated/untreated OD600 ratio)” value (S. oralis 35037; 130 μg/ml) was 0.04. The “lysis value after 1 hr (treated/untreated OD600 ratio)” value (S. rattus BHT; 6.5 μg/ml) was 0.82, the “lysis value after 1 hr (treated/untreated OD600 ratio)” value (S. rattus BHT; 13 μg/ml) was 0.84 and the “lysis value after 1 hr (treated/untreated OD600 ratio)” value (S. rattus BHT; 30 μg/ml) was 0.82. The “lysis value after 1 hr (treated/untreated OD600 ratio)” value (S. rattus BHT; 65 μg/ml) was 0.83, the “lysis value after 1 hr (treated/untreated OD600 ratio)” value (S. rattus BHT; 130 μg/ml) was 0.79 and the “lysis value after 1 hr (treated/untreated OD600 ratio)” value (S. dysgalactiae GGS; 6.5 μg/ml) was 0.30. The “lysis value after 1 hr (treated/untreated OD600 ratio)” value (S. dysgalactiae GGS; 13 μg/ml) was 0.27, the “lysis value after 1 hr (treated/untreated OD600 ratio)” value (S. dysgalactiae GGS; 30 μg/ml) was 0.15 and the “lysis value after 1 hr (treated/untreated OD600 ratio)” value (S. dysgalactiae GGS; 65 μg/ml) was 0.11. The “lysis value after 1 hr (treated/untreated OD600 ratio)” value (S. dysgalactiae GGS; 130 μg/ml) was 0.14, the “lysis value after 1 hr (treated/untreated OD600 ratio)” value (E. faecium EFSK2; 6.5 μg/ml) was 0.85 and the “lysis value after 1 hr (treated/untreated OD600 ratio)” value (E. faecium EFSK2; 13 μg/ml) was 0.67. For the same molecule, the “lysis value after 1 hr (treated/untreated OD600 ratio)” value (E. faecium EFSK2; 30 μg/ml) was 0.52, the “lysis value after 1 hr (treated/untreated OD600 ratio)” value (E. faecium EFSK2; 65 μg/ml) was 0.32 and the “lysis value after 1 hr (treated/untreated OD600 ratio)” value (E. faecium EFSK2; 130 μg/ml) was 0.13. The “lysis value after 1 hr (treated/untreated OD600 ratio)” value (B. thuringiensis HD73; 6.5 μg/ml) was 0.99, the “lysis value after 1 hr (treated/untreated OD600 ratio)” value (B. thuringiensis HD73; 13 μg/ml) was 0.98 and the “lysis value after 1 hr (treated/untreated OD600 ratio)” value (B. thuringiensis HD73; 30 μg/ml) was 0.93. The “lysis value after 1 hr (treated/untreated OD600 ratio)” value (B. thuringiensis HD73; 65 μg/ml) was 0.86, the “lysis value after 1 hr (treated/untreated OD600 ratio)” value (B. thuringiensis HD73; 130 μg/ml) was 0.60 and the “1-hour treated/untreated OD600-ratio” value (S. suis 7197 (ST7); 6.5 μg/ml) was 0.64. For the same molecule, the “1-hour treated/untreated OD600-ratio” value (S. suis 7197 (ST7); 13 μg/ml) was 0.49, the “1-hour treated/untreated OD600-ratio” value (S. suis 7197 (ST7); 30 μg/ml) was 0.39 and the “1-hour treated/untreated OD600-ratio” value (S. suis 7197 (ST7); 65 μg/ml) was 0.16. For the same molecule, the “1-hour treated/untreated OD600-ratio” value (S. suis 7197 (ST7); 130 μg/ml) was 0.07, the “1-hour treated/untreated OD600-ratio” value (S. suis ST8; 6.5 μg/ml) was 0.25 and the “1-hour treated/untreated OD600-ratio” value (S. suis ST8; 13 μg/ml) was 0.12. The “1-hour treated/untreated OD600-ratio” value (S. suis ST8; 30 μg/ml) was 0.06, the “1-hour treated/untreated OD600-ratio” value (S. suis ST8; 65 μg/ml) was 0.03 and the “1-hour treated/untreated OD600-ratio” value (S. suis ST8; 130 μg/ml) was 0.03. The “lysis value after 1 hr (treated/untreated OD600 ratio)” value (S. uberis 27598; 6.5 μg/ml) was 0.42, the “lysis value after 1 hr (treated/untreated OD600 ratio)” value (S. uberis 27598; 13 μg/ml) was 0.23 and the “lysis value after 1 hr (treated/untreated OD600 ratio)” value (S. uberis 27598; 30 μg/ml) was 0.16. The “lysis value after 1 hr (treated/untreated OD600 ratio)” value (S. uberis 27598; 65 μg/ml) was 0.14, the “lysis value after 1 hr (treated/untreated OD600 ratio)” value (S. uberis 27598; 130 μg/ml) was 0.12 and the “lysis value after 1 hr (treated/untreated OD600 ratio)” value (S. pyogenes D471; 6.5 μg/ml) was 0.39. For the same molecule, the “lysis value after 1 hr (treated/untreated OD600 ratio)” value (S. pyogenes D471; 13 μg/ml) was 0.27, the “lysis value after 1 hr (treated/untreated OD600 ratio)” value (S. pyogenes D471; 30 μg/ml) was 0.17 and the “lysis value after 1 hr (treated/untreated OD600 ratio)” value (S. pyogenes D471; 65 μg/ml) was 0.13. The “lysis value after 1 hr (treated/untreated OD600 ratio)” value (S. pyogenes D471; 130 μg/ml) was 0.09, the “lysis value after 1 hr (treated/untreated OD600 ratio)” value (S. dysgalactiae 21597; 6.5 μg/ml) was 0.26 and the “lysis value after 1 hr (treated/untreated OD600 ratio)” value (S. dysgalactiae 21597; 13 μg/ml) was 0.18. For the same molecule, the “lysis value after 1 hr (treated/untreated OD600 ratio)” value (S. dysgalactiae 21597; 30 μg/ml) was 0.12, the “lysis value after 1 hr (treated/untreated OD600 ratio)” value (S. dysgalactiae 21597; 65 μg/ml) was 0.10 and the “lysis value after 1 hr (treated/untreated OD600 ratio)” value (S. dysgalactiae 21597; 130 μg/ml) was 0.09.

B2: PlySs2: Streptococcus suis prophage lysin, SEQ ID NO:3; N-terminal CHAP domain and C-terminal SH3-type 5 domain (protein, listed as Streptococcus suis)
chain: MTTVNEALNNVRAQVGSGVSVGNGECYALASWYERMISPDATVGLGAGVGWVSGAIGDTISAKNIGSSYNWQANGWTVSTSGPFKAGQIVTLGATPGNPYGHVVIVEAVDGDRLTILEQNYGGKRYPVRNYYSAASYRQQVVHYITPPGTVAQSAPNLAGSRSYRETGTMTVTVDALNVRRAPNTSGEIVAVYKRGESFDYDTVIIDVNGYVWVSYIGGSGKRNYVATGATKDGKRFGNAWGTFK
In the case of B2, the “consecutive room temperature to −80° C. freeze-thaws without effect on activity” value (S. suis 7997) is reported as 10, the “effect of NaCl on bacteriolysis” value (S. suis 7997; 0-1000 mM NaCl, constant enzyme concentration) is reported as “bacteriolysis decreased from 0-1000 mM NaCl” and the “effect of EDTA on lysis” value (S. suis 7997; 15 mM Na3PO4, pH 8.0, various EDTA concentrations) is reported as “impeded PlySs2-induced lysis”. For the same molecule, the “activity after 15 days of 4° C. incubation” value (S. suis 7997; 4° C., 15 days) was “no observable decrease in activity; also recorded: stable”, the “activity after incubation at 37° C. for 24 hours” value (S. suis 7997; 37° C., 24 hours) was “retained full activity; also recorded: stable” and the “stability up to 24 hours at 37° C. in buffer” value (S. suis 7997; 37° C., 24 hours, killing of strain 7997) was > 90%. The “activity after 48-hour 37° C. incubation” value (S. suis 7997; 37° C., 48 hours) was “diminished activity”, the “activity maintained after 48 hours at 37° C.” value (S. suis 7997; 37° C., 48 hours) was “at least 50%” and the “temperature at which activity completely abolished” value (S. suis 7997; 30 min incubation) was 60 °C. The “pH of maximal lysis in BTP” value (S. suis 7997; BTP buffer pH 7.0-9.7) was 9.7, the “acute activity up to pH” value (S. suis 7997; Bis-tris propane (BTP) buffer) was ≤ 9.7 and the “activity down to pH” value (S. suis 7997; PlySs2 32 μg/ml) was ≥ 6.0. For the same molecule, the “effect of excess DTT on activity” value (S. suis 7997; data not shown) was “no impact”, the “pH of strongest activity” value (S. suis 7997; phosphate/citrate buffer pH 4.6-8.0, PlySs2 32 μg/ml) was 8.0 and the “activity retained on storage in buffer at −80° C.” value (S. suis 7997; up to at least 7 months at −80° C.) was ~100%. For the same molecule, the “NaCl concentration of greatest activity” value (S. suis 7997; various NaCl concentrations) was 0 mM, the “survival evaluated over ten days” value (MRSA; 500 μL PlySs2 at 2 mg/mL IP 3 hours after MRSA) was “remarkable survival” and the “mice cleared of bacteremia (survival over 10 days)” value (MRSA; MRSA bacteremia, FIG. 24) was 95%. The “reduction of colony forming units (CFUs)” value (MRSA MW2) was 5 logs.
